Measured values reported in publication PMC5986196, “Arrest of trans-SNARE zippering uncovers loosely and tightly docked intermediates in membrane fusion” (The Journal of Biological Chemistry, 2018).

Molecular target: T1, syntaxin 1a (syx(183–288)) (Rattus norvegicus, UniProt P32851 183-288)
T1 construct: also called N-terminally truncated variant of syntaxin; source: in n-octyl β-D-glucopyranoside
Assay: co-purification by ion exchange chromatography (Mono Q); purified monomers mixed overnight at 4 °C, complex purified the next day on a Mono Q column
Conditions: both partners purified

T1 sequence (P32851 183-288): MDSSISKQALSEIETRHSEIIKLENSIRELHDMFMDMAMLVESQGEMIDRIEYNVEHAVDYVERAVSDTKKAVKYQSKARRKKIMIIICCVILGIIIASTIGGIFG

B1: syb(49–96), C-terminal fragment of synaptobrevin (domain or fragment, Rattus norvegicus, UniProt P63045 49-96, looked up)
chain: NVDKVLERDQKLSELDDRADALQAGASQFETSAAKLKRKYWWKNLKMM
notes: synaptobrevin 2 (syb), Rattus norvegicus, residues 49–96; also called synaptobrevin(49–96)
  binding result: binds
